Experimental data: patent US20050080013A1 (Pfizer, published 2005)
Non-standard residues stand in square brackets, D forms with d. No end group written: not given here. Aib = CC(C)(N)C(=O)O

T1: lecithin:cholesterol acyltransferase (LCAT), purified from human plasma (human, UniProt P04180 25-440)
T1 sequence (looked up): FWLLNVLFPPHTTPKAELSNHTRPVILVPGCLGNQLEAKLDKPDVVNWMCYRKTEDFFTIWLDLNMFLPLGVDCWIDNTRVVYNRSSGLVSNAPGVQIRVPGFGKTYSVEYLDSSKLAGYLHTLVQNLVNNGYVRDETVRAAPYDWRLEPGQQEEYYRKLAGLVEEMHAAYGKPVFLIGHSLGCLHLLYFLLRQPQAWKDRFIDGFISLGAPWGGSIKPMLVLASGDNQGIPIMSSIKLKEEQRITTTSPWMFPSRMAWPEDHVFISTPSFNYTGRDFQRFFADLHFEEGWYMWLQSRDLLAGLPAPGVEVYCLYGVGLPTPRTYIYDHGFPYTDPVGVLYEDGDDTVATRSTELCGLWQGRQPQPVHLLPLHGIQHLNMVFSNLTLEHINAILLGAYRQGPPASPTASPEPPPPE

B1: peptide 76 (peptide)
peptide: PVLDEFRELLFE[Aib]LEALKQKLK
B2: peptide 74 (peptide)
peptide: PVLDKFREKLNE[Aib]LEALKQKLK
B3: peptide 8 (peptide)
peptide: PVLDLFRELLNEGLEALKQKLK
B4: peptide 77 (peptide)
peptide: PVLDEFREKLNK[Aib]LEALKQKLK
B5: peptide 85 (peptide)
peptide: PLDLFRELLNELLEALKQKLK
B6: peptide 88 (peptide)
peptide: PVLDKFRELLNE[Aib]LEALKQKLK
B7: peptide 91 (peptide)
peptide: PVLDEFRELLNE[Aib]LEALKQKLK
B8: peptide 102 (peptide)
peptide: PVLDLFRELLNL[Aib]LEALKEKLK
B9: peptide 90 (peptide)
peptide: DEFREKLNE[Aib]LEALKQKLK
B10: peptide 75 (peptide)
peptide: PVLDEFREKLNEELEALKQKLK
B11: peptide 92 (peptide)
peptide: PVLDEFRELYNE[Aib]LEALKQKLK
B12: peptide 7 (peptide)
peptide: PVLDLFKELLNELLEALKQKLK
B13: peptide 96 (peptide)
peptide: [dP][dV][dL][dD][dL][dF][dR][dE][dL][dL][dN][dE][Aib][dL][dE][dA][dL][dK][dQ][dK][dL][dK]
B14: peptide 86 (peptide)
peptide: PVLELFERLLDELLNALQKKLK
B15: peptide 101 (peptide)
peptide: PVLDLFRELLNW[Aib]LEALKQKLK
B16: peptide 100 (peptide)
peptide: [dP][dV][dL][dD][dL][dF][dR][dE][dL][dL][dN][dE][dL][dL][dE][dA][dL][dK][dQ][dK][dL][dK]
B17: peptide 70 (peptide)
peptide: PVLDEFRELLYE[Aib]LEALKQKLK
B18: peptide 99 (peptide)
peptide: KLKQKLAELLENLLERFLDLVP
B19: peptide 67 (peptide)
peptide: VLDLFRELLNELLEALKQKLK
B20: peptide 69 (peptide)
peptide: PVLDEFRKKLNE[Aib]LEALKQKLK
B21: peptide 72 (peptide)
peptide: PVLDLFRELLNE[Aib]LWALKQKLK
B22: peptide 66 (peptide)
peptide: PVLDLFRNLLEELLEALQKKLK
B23: peptide 73 (peptide)
peptide: PVLDEFWEKLNE[Aib]LEALKQKLK
B24: peptide 9 (peptide)
peptide: PVLDLFRELGNELLEALKQKLK
B25: peptide 94 (peptide)
peptide: PVLDEFREKLNEALEALKQKLK
B26: peptide 93 (peptide)
peptide: PVLDEFREKLNE[Aib]LKALKQKLK
B27: peptide 89 (peptide)
peptide: PVLDEFREKLNE[Aib]LWALKQKLK
B28: peptide 97 (peptide)
peptide: PVLDLFRELLNELLE
B29: peptide 64 (peptide)
peptide: PWLDEFREKLNE[Aib]LEALKQKLK
B30: peptide 80 (peptide)
peptide: PVLDLFERLLNELLEALQKKLK
B31: peptide 98 (peptide)
peptide: PVLDLFRELLNEELEALKQKLK
B32: peptide 65 (peptide)
peptide: VLDEFREKLNE[Aib]LEALKQKLK
B33: peptide 84 (peptide)
peptide: PVLDEFREKLNELLEALKQKLK
B34: peptide 87 (peptide)
peptide: [dP][dL][dL][dE][dL][dL][dK][dE][dL][dL][dQ][dE][dL][dL][dE][dA][dL][dK][dQ][dK][dL][dK]
B35: peptide 95 (peptide)
peptide: PVLDLFRELLNL[Aib]LEALKQKLK
B36: peptide 79 (peptide)
peptide: PVLDEFRELLNELLEALKQKLK
B37: peptide 71 (peptide)
peptide: PVLDEFREKLNEL[Aib]EALKQKLK
B38: peptide 82 (peptide)
peptide: LDEFREKLNE[Aib]LEALKQKLK
B39: peptide 68 (peptide)
peptide: PVLDEFRELLKE[Aib]LEALKQKLK

Molecular target: T1, lecithin:cholesterol acyltransferase …
Assay: cell-based or functional assay

ACTIVITY (%) LCAT | Binder
9% | B1
10% | B2
83% | B3
9% | B4
7% | B5
7% | B6
6% | B7
2% | B8
6% | B9
10% | B10
5% | B11
83% | B12
5% | B13
7% | B14
2% | B15
2% | B16
12% | B17
2% | B18
14% | B19
13% | B20

ACTIVITY (%) LCAT | Binder
11% | B21
15% | B22
10% | B23
83% | B24
5% | B25
5% | B26
6% | B27
4% | B28
15% | B29
9% | B30
2% | B31
15% | B32
7% | B33
7% | B34
5% | B35
9% | B36
11% | B37
8% | B38
14% | B39
